{"source": "paper PMC9820451", "about": "“Coprinopsis cinerea Galectin CGL1 Induces Apoptosis and Inhibits Tumor Growth in Colorectal Cancer Cells” (International Journal of Molecular Sciences, 2022)", "proteins": {"B1": {"name": "Coprinopsis cinerea galectin CGL1 (natural protein)", "chain": "MLYHLFVNNQIKLQDDFKAEAVATIRSSVFNSKGGTTVFNFLSAGENILLHISIRPGENAIVFNSRTKGGAWGPEERVPYAGKFKGPNPSITVLDHGDRFQILFDNATAIYYTKRIKENAAAIAYSAENSLFSSPVTVDIHGLLPPLPPA", "notes": "galectin CGL1 of Coprinopsis cinerea, full-length cgl1 amplified from genomic DNA of strain Okayama 7 (#130; ATCC MYA-4618), cloned into pET22b(+); No removal of the tag is told"}}, "target": "the molecule itself", "experiment": "dynamic light scattering; dilutions of the purified galectin filtered through 0.22 µm membranes, Zetasizer Nano-S; molecular weight estimated from the hydrodynamic radius; self-association, tetramer", "data": [{"protein": "B1", "values": [{"measurement": "stoichiometry N", "value": 4}]}]}
